The record followed here is paper PMC5374107.

Sequence of Recombinant His-tagged EPCR (human) (Q9UNN8 18-238): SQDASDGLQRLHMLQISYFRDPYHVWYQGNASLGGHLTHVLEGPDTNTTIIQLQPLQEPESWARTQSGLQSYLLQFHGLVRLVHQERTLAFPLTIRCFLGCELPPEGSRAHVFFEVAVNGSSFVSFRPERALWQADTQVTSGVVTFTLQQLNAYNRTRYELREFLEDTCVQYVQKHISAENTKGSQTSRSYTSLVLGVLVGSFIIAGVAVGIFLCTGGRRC

The first assay addresses ICAM-1D1D5-Fc (human). Put plainly: SPR; Biacore T-200; ICAM-1D1D5 Fc immobilized to 1,400 RU on a CM5 chip pre-coupled to Protein A; head structures injected, two-fold dilutions 4 nM to 500 nM, 40 µL/min, 240 s association, 600 s dissociation; 10 mM HEPES pH 8.0, 300 mM NaCl, 0.05% Tween-20; one-site kinetic model. On the technique in general: In SPR one partner is held on a chip, and binding of the other changes the refractive index at the surface.
A word on the Kd: it is the concentration at which binding is half-saturated. The koff is the first-order rate constant of dissociation. One may read the kon as the second-order rate constant of association. In turn, “PFD1235w head structure (CIDRα1.6-DBLβ3) (domain or fragment)” came in with a Kd of 18 nM, a dissociation rate constant (koff) of 0.000108 s⁻¹ and a kon of 6000 M⁻¹ s⁻¹.

Another assay addresses Recombinant His-tagged EPCR (human) (UniProt Q9UNN8). Kind of assay: SPR; Biacore T-200; biotinylated EPCR immobilized to 650 RU on a CAP chip (Biotin Capture Kit); head structures injected, two-fold dilutions 500 nM to 4 nM, 30 µL/min, 240 s association, 720 s dissociation; 10 mM HEPES pH 7.4, 300 mM NaCl, 0.05% Tween-20, 2 mg/ml ssDNA; one-site kinetic model.
Consider “PFD1235w head structure (CIDRα1.6-DBLβ3) (domain or fragment)”, for which the Kd was found to be 17.1 nM, the koff turned out to be 0.000581 s⁻¹ and the kon stood at 34000 M⁻¹ s⁻¹.

For a further assay, the target named is ICAM-1D1D5-Fc (human). Kind of assay: SPR; Biacore T-200; ICAM-1D1D5 Fc immobilized to 2100 RU on a CM5 chip pre-coupled to Protein A; wild type or mutant PF11_0521 DBLβ3_D4 injected, two-fold dilutions 4 nM to 500 nM, 40 µL/min, 240 s association, 660 s dissociation; 10 mM HEPES pH 8.0, 300 mM NaCl, 0.05% Tween-20; global fit to a one-site kinetic model.
In the case of “PF11_0521 DBLβ3_D4 G1083A (domain or fragment)”, the Kd was 3520 nM, the koff stood at 0.0701 s⁻¹ and the kon was determined as 19900 M⁻¹ s⁻¹.
Turning to “PF11_0521 DBLβ3_D4 G1084A (domain or fragment)”, the Kd came out at 4060 nM, the koff stood at 0.0394 s⁻¹ and the kon worked out at 9700 M⁻¹ s⁻¹.
For “PF11_0521 DBLβ3_D4 G1111A (domain or fragment)”, the Kd came to 34.1 nM, the koff amounted to 0.000639 s⁻¹ and the kon amounted to 18700 M⁻¹ s⁻¹.
Turning to “PF11_0521 DBLβ3_D4 H1121A (domain or fragment)”, the Kd came out at 962 nM, the koff came out at 0.00592 s⁻¹ and the kon came to 6100 M⁻¹ s⁻¹.
On the same counts, the results for “PF11_0521 DBLβ3_D4 I1078S (domain or fragment)” are 1250 nM, 0.0235 s⁻¹ and 18800 M⁻¹ s⁻¹.
Substance “PF11_0521 DBLβ3_D4 K1124A (domain or fragment)” registered a Kd of 9.75 nM, a koff of 0.000154 s⁻¹ and an association rate constant (kon) of 15900 M⁻¹ s⁻¹.
In the case of “PF11_0521 DBLβ3_D4 M1071S (domain or fragment)”, the Kd worked out at 24.6 nM, the koff worked out at 0.000451 s⁻¹ and the kon was determined as 18400 M⁻¹ s⁻¹.
On the same counts, the results for “PF11_0521 DBLβ3_D4 N1082A (domain or fragment)” are 1320 nM, 0.0244 s⁻¹ and 18400 M⁻¹ s⁻¹.
The substance “PF11_0521 DBLβ3_D4 N1089A (domain or fragment)” displayed a dissociation constant Kd of 6.3 nM, a koff of 0.000114 s⁻¹ and a kon of 17900 M⁻¹ s⁻¹.
Substance “PF11_0521 DBLβ3_D4 P1116A (domain or fragment)” registered a Kd of 1690 nM, a koff of 0.00237 s⁻¹ and a kon of 1300 M⁻¹ s⁻¹.
On the same counts, the results for “PF11_0521 DBLβ3_D4 R1077A (domain or fragment)” are 34.7 nM, 0.000382 s⁻¹ and 11000 M⁻¹ s⁻¹.
With “PF11_0521 DBLβ3_D4 T1120A (domain or fragment)”, the Kd was 21.1 nM, the koff was 0.000298 s⁻¹ and the kon was found to be 14100 M⁻¹ s⁻¹.
In turn, “PF11_0521 DBLβ3_D4 domain, wild type (domain or fragment)” returned a Kd of 3.2 nM, a koff of 6.2e-05 s⁻¹ and a kon of 19300 M⁻¹ s⁻¹.
